Our source for the stoichiometry N values is article PMC4671958.

The target in the experiment is DNA polymerase theta helicase domain (Polθ-HLD), residues 1–894 (human), O75417. Description: crystal structure; apo protein, 3.55 Å, four copies in the asymmetric unit; crystallized in 0.2 M NaCl, 0.1 M HEPES (pH 7.0), 20% PEG 6K, 10% ethylene glycol. Conditions: remark: other sources report otherwise.

Broadly, the stoichiometry N is a count of units in the complex or per binding partner.

B1: DNA polymerase theta helicase domain (Polθ-HLD), residues 1–894, O75417 1-894 (domain or fragment)
chain: MNLLRRSGKRRRSESGSDSFSGSGGDSSASPQFLSGSVLSPPPGLGRCLKAAAAGECKPTVPDYERDKLLLANWGLPKAVLEKYHSFGVKKMFEWQAECLLLGQVLEGKNLVYSAPTSAGKTLVAELLILKRVLEMRKKALFILPFVSVAKEKKYYLQSLFQEVGIKVDGYMGSTSPSRHFSSLDIAVCTIERANGLINRLIEENKMDLLGMVVVDELHMLGDSHRGYLLELLLTKICYITRKSASCQADLASSLSNAVQIVGMSATLPNLELVASWLNAELYHTDFRPVPLLESVKVGNSIYDSSMKLVREFEPMLQVKGDEDHVVSLCYETICDNHSVLLFCPSKKWCEKLADIIAREFYNLHHQAEGLVKPSECPPVILEQKELLEVMDQLRRLPSGLDSVLQKTVPWGVAFHHAGLTFEERDIIEGAFRQGLIRVLAATSTLSSGVNLPARRVIIRTPIFGGRPLDILTYKQMVGRAGRKGVDTVGESILICKNSEKSKGIALLQGSLKPVRSCLQRREGEEVTGSMIRAILEIIVGGVASTSQDMHTYAACTFLAASMKEGKQGIQRNQESVQLGAIEACVMWLLENEFIQSTEASDGTEGKVYHPTHLGSATLSSSLSPADTLDIFADLQRAMKGFVLENDLHILYLVTPMFEDWTTIDWYRFFCLWEKLPTSMKRVAELVGVEEGFLARCVKGKVVARTERQHRQMAIHKRFFTSLVLLDLISEVPLREINQKYGCNRGQIQSLQQSAAVYAGMITVFSNRLGWHNMELLLSQFQKRLTFGIQRELCDLVRVSLLNAQRARVLYASGFHTVADLARANIVEVEVILKNAVPFKSARKAVDEEEEAVEERRNMRTIWVTGRKGLTEREAAALIVEEARMILQQDLVEM
B1: the stoichiometry N came out at 4.
